In article doi:10.1101/2025.10.08.681152 (bioRxiv, 2025):

Biological target: EGFP, C-terminally biotinylated (Aequorea victoria GFP, engineered EGFP …, biotin on the C-terminal biotin acceptor peptide)
Assay: BLI

- Kd: 0.75 nM
- koff: 7.1e-05 s⁻¹
- kon: 94000 M⁻¹ s⁻¹
B1: GBP* (engineered GFP-Binding Protein, unconjugated) (VHH)
VHH: QVQLVESGGALVQPGGSLRLSCAASGFPVNRYSMRWYRQAPGREREWVAGMSSAGDRSSYEDSVRGRFTISRDDARNTVYLQMNSLRPEDTAVYYCNVNVGFEYWGQGTQVTVSS
